Source: US20110287001A1, “METHOD OF TREATMENT” (TETRALOGIC PHARMACEUTICALS, priority 2008, published 2011)

Assays:
Experiment in all cases: ATPLITE cell viability, TRAIL and compound X with or without anti-human TNFα antibody
Format in all cases: cell-based
[1] = system: SKOV-3 ovarian cancer cells; conditions: SKOV-3, 48 hours
Protocol: (§1) Cells were seeded in flat-bottom 96-well plates (clear bottom, white walls) at a concentration of 1×10^4 cells/well and incubated overnight at 37° C., 5% CO2. The following day, cells were stimulated with TRAIL at a concentration ranging from 0.24 ng/ml to 1 μg/ml (4-fold dilutions) in combination with IAP inhibitor compound X at a concentration ranging from 0.01 nM to […] (10-fold dilutions).
(§2) A blocking antibody to human TNFα (R&D Systems, Minneapolis, Minn.) was added to some cultures at a final concentration of 5 μg/ml two hours before the addition of the combination of TRAIL and compound X. Final culture volumes were 100 μl
(§3) After 48 hours, cell viability was determined using the ATPLITE™ assay, an adenosine triphosphate (ATP) monitoring system based on firefly (Photinus pyralis) luciferase (Perkin Elmer, Waltham, Mass.) according to the manufacturer's recommendations. Relative light units (RLU) were measured using an LJL Biosystems Analyst HT plate reader (Molecular Devices, Sunnyvale, Calif.). The percent of surviving cells was calculated as follows: (experimental RLU/control RLU)×100. The control RLU was determined by testing untreated cells.

[2] = system: HCT116 colon cancer cells
Protocol: as §1, §2, §3

[3] = system: A375 melanoma cells; conditions: A375, 48 hours
Protocol: as §1, §2, §3

B1: TRAIL: TNF-related apoptosis-inducing ligand (TRAIL), TRAIL receptor agonist (protein, UniProt P50591 1-281, looked up)
Tumor necrosis factor ligand …: MAMMEVQGGPSLGQTCVLIVIFTVLLQSLCVAVTYVYFTNELKQMQDKYSKSGIACFLKEDDSYWDPNDEESMNSPCWQVKWQLRQLVRKMILRTSEETISTVQEKQQNISPLVRERGPQRVAAHITGTRGRSNTLSSPNSKNEKALGRKINSWESSRSGHSFLSNLHLRNGELVIHEKGFYYIYSQTYFRFQEEIKENTKNDKQMVQYIYKYTSYPDPILLMKSARNSCWSKDAEYGLYSIYQGGIFELKENDRIFVSVTNEHLIDMDHEASFFGAFLVG
single agent-induced cell death [1]: resistant
single agent-induced cell death ([2]; HCT116, 48 hours): some sensitivity
surviving cells (percent of control) ([2]; HCT116, TRAIL 1 μg/ml, 48 hours): 40%
single agent killing [3]: partialy resistant
